In article PMC4669440:

Test: micro-CT of femur
Conditions: glycan lost; control: WT mice

B1: Dentin matrix protein 1 (DMP1): S89G (protein)
parent chain: MKTVILLVFLWGLSCALPVARYHNTESESSEERTGDLAGSPPPPTNSESSEESQASPEGQANSDHTDSSESGEELGYDRGQYRPAGGLSKSTGTGADKEDDEDDSGDDTFGDEDNDLGPEEGQWGGPSKLDSDEDSTDTTQSSEDSTSQENSAQDTPSDSKDHDSEDEADSRPEAGDSTQDSESEEQRVGGGSEGESSHGDGSEFDDEGMQSDDPESTRSDRGHARMSSAGIRSEESKGDHEPTSTQDSDDSQSVEFSSRKSFRRSHVSEEDYRGELTDSNSRETQSDSTEDTASKEESRSESQEDTAESQSQEDSPEGQDPSSESSEEAGEPSQESSSESQEGVTSESRGDNPDNTSQAGDQEDSESSEEDSLNTFSSSESQSTEEQADSESNESLSLSEESQESAQDGDSSSQEGLQSQSASTESRSQESQSEQDSRSEEDSDSQDSSRSKEESNSTGSASSSEEDIRPKNMEADSRKLIVDAYHNKPIGDQDDNDCQDGY
Q: Which “other: bone material density” value does the source give for B1 here?
A: increases
